According to publication PMC11322666 (2024):

B1: UPF3B^WT, Flag tagged [human] / UPF2, endogenous [human (endogenous in HEK293T)] (parent complex)
chain 1: MKEEKEHRPKEKRVTLLTPAGATGSGGGTSGDSSKGEDKQDRNKEKKEALSKVVIRRLPPTLTKEQLQEHLQPMPEHDYFEFFSNDTSLYPHMYARAYINFKNQEDIILFRDRFDGYVFLDNKGQEYPAIVEFAPFQKAAKKKTKKRDTKVGTIDDDPEYRKFLESYATDNEKMTSTPETLLEEIEAKNRELIAKKTTPLLSFLKNKQRMREEKREERRRREIERKRQREEERRKWKEEEKRKRKDIEKLKKIDRIPERDKLKDEPKIKVHRFLLQAVNQKNLLKKPEKGDEKELDKREKAKKLDKENLSDERASGQSCTLPKRSDSELKDEKPKRPEDESGRDYREREREYERDQERILRERERLKRQEEERRRQKERYEKEKTFKRKEEEMKKEKDTLRDKGKKAESTESIGSSEKTEKKEEVVKRDRIRNKDRPAMQLYQPGARSRNRLCPPDDSTKSGDSAAERKQESGISHRKEGGEE
chain 2: MPAERKKPASMEEKDSLPNNKEKDCSERRTVSSKERPKDDIKLTAKKEVSKAPEDKKKRLEDDKRKKEDKERKKKDEEKVKAEEESKKKEEEEKKKHQEEERKKQEEQAKRQQEEEAAAQMKEKEESIQLHQEAWERHHLRKELRSKNQNAPDSRPEENFFSRLDSSLKKNTAFVKKLKTITEQQRDSLSHDFNGLNLSKYIAEAVASIVEAKLKISDVNCAVHLCSLFHQRYADFAPSLLQVWKKHFEARKEEKTPNITKLRTDLRFIAELTIVGIFTDKEGLSLIYEQLKNIINADRESHTHVSVVISFCRHCGDDIAGLVPRKVKSAAEKFNLSFPPSEIISPEKQQPFQNLLKEYFTSLTKHLKRDHRELQNTERQNRRILHSKGELSEDRHKQYEEFAMSYQKLLANSQSLADLLDENMPDLPQDKPTPEEHGPGIDIFTPGKPGEYDLEGGIWEDEDARNFYENLIDLKAFVPAILFKDNEKSCQNKESNKDDTKEAKESKENKEVSSPDDLELELENLEINDDTLELEGGDEAEDLTKKLLDEQEQEDEEASTGSHLKLIVDAFLQQLPNCVNRDLIDKAAMDFCMNMNTKANRKKLVRALFIVPRQRLDLLPFYARLVATLHPCMSDVAEDLCSMLRGDFRFHVRKKDQINIETKNKTVRFIGELTKFKMFTKNDTLHCLKMLLSDFSHHHIEMACTLLETCGRFLFRSPESHLRTSVLLEQMMRKKQAMHLDARYVTMVENAYYYCNPPPAEKTVKKKRPPLQEYVRKLLYKDLSKVTTEKVLRQMRKLPWQDQEVKDYVICCMINIWNVKYNSIHCVANLLAGLVLYQEDVGIHVVDGVLEDIRLGMEVNQPKFNQRRISSAKFLGELYNYRMVESAVIFRTLYSFTSFGVNPDGSPSSLDPPEHLFRIRLVCTILDTCGQYFDRGSSKRKLDCFLVYFQRYVWWKKSLEVWTKDHPFPIDIDYMISDTLELLRPKIKLCNSLEESIRQVQDLEREFLIKLGLVNDKDSKDSMTEGENLEEDEEEEEGGAETEEQSGNESEVNEPEEEEGSDNDDDEGEEEEEENTDYLTDSNKENETDEENTEVMIKGGGLKHVPCVEDEDFIQALDKMMLENLQQRSGESVKVHQLDVAIPLHLKSQLRKGPPLGGGEGEAESADTMPFVMLTRKGNKQQFKILNVPMSSQLAANHWNQQQAEQEERMRMKKLTLDINERQEQEDYQEMLQSLAQRPAPANTNRERRPRYQHPKGAPNADLIFKTGGRRR
B2: UPF3B^WT, Flag tagged [human] / inositol-requiring enzyme-1α (IRE1α), endogenous [human (endogenous in HEK293T and U2OS)] (parent complex)
chain 1: B1 chain 1
chain 2: IFGSTSTVTLPETLLFVSTLDGSLHAVSKRTGSIKWTLKEDPVLQVPTHVEEPAFLPDPNDGSLYTLGSKNNEGLTKLPFTIPELVQASPCRSSDGILYMGKKQDIWYVIDLLTGEKQQTLSSAFADSLCPSTSLLYLGRTEYTITMYDTKTRELRWNATYFDYAASLPEDDVDYKMSHFVSNGDGLVVTVDSESGDVLWIQNYASPVVAFYVWQREGLRKVMHINVAVETLRYLTFMSGEVGRITKWKYPFPKETEAKSKLTPTLYVGKYSTSLYASPSMVHEGVAVVPRGSTLPLLEGPQTDGVTIGDKGECVITPSTDVKFDPGLKSKNKLNYLRNYWLLIGHHETPLSASTKMLERFPNNLPKHRENVIPADSEKKSFEEVINLVDQTSENAPTTVSRDVEEKPAHAPARPEAPVDSMLKDMATIILSTFLLIGWVAFIITYPLSMHQQQQLQHQQFQKELEKIQLLQQQQQQLPFHPPGDTAQDGELLDTSGPYSESSGTSSPSTSPRASNHSLCSGSSASKAGSSPSLEQDDGDEETSVVIVGKISFCPKDVLGHGAEGTIVYRGMFDNRDVAVKRILPECFSFADREVQLLRESDEHPNVIRYFCTEKDRQFQYIAIELCAATLQEYVEQKDFAHLGLEPITLLQQTTSGLAHLHSLNIVHRDLKPHNILISMPNAHGKIKAMISDFGLCKKLAVGRHSFSRRSGVPGTEGWIAPEMLSEDCKENPTYTVDIFSAGCVFYYVISEGSHPFGKSLQRQANILLGACSLDCLHPEKHEDVIARELIEKMIAMDPQKRPSAKHVLKHPFFWSLEKQLQFFQDVSDRIEKESLDGPIVKQLERGGRAVVKMDWRENITVPLQTDLRKFRTYKGGSVRDLLRAMRNKKHHYRELPAEVRETLGSLPDDFVCYFTSRFPHLLAHTYRAMELCSHERLFQPYYFHEPPEPQPPVTPDAL

Variants of: B1
Test: co-immunoprecipitation (IP: Flag, blot UPF2), western blot band quantification; transfected for 24 h

| ratio to parent | Variant |
| --- | --- |
| 0.2 | chain 1 T169D |
| 1.1 | chain 1 T169A |

Variants of: B1
Test: as above
Remark: another data set of the same source

| ratio to parent | Variant |
| --- | --- |
| 1.08 | chain 1 Y160F |
| 0.21 | chain 1 Y160D |

Variants of: B1
Test: as above
Remark: another data set of the same source

| ratio to parent | Variant |
| --- | --- |
| 1.07 | chain 1 T198D |
| 1.11 | chain 1 T197D |

Variants of: B2
Test: co-immunoprecipitation (IP: Flag, blot IRE1α), western blot band quantification; transfected for 24 h

| ratio to parent | Variant |
| --- | --- |
| 1.21 | chain 1 T198D |
| 1.06 | chain 1 T198A |

Variants of: B2
Test: co-immunoprecipitation (IP: Flag, blot IRE1α), western blot band quantification; HEK293T cells, transfected for 24 h

| ratio to parent | Variant |
| --- | --- |
| 1.15 | chain 1 T169A |
| 0.26 | chain 1 T169D |

Variants of: B2
Test: co-immunoprecipitation (IP: Flag, blot IRE1α), western blot band quantification; transfected for 24 h
Remark: another data set of the same source

| ratio to parent | Variant |
| --- | --- |
| 1.1 | chain 1 T197D |
| 1.22 | chain 1 T197A |

Variants of: B2
Test: co-immunoprecipitation (IP: Flag, blot IRE1α), western blot band quantification; U2OS cells, transfected for 24 h

| ratio to parent | Variant |
| --- | --- |
| 1.29 | chain 1 Y160F |
| 0.17 | chain 1 Y160D |

Variants of: B2
Test: co-immunoprecipitation (IP: Flag, blot IRE1α), western blot band quantification; HEK293T cells, transfected for 24 h
Remark: another data set of the same source

| ratio to parent | Variant |
| --- | --- |
| 1.28 | chain 1 Y160F |
| 0.21 | chain 1 Y160D |
